{"source": "patent US20230212549A1", "about": "“COMPOUNDS COMPRISING A […] LIGAND AND USE THEREOF” (priority 2021, published 2023)", "key": {"[1]": {"target": "human fibroblast activation protein (FAP) on WI-38 fibroblasts (human) (UniProt Q12884)", "experiment": "competitive FACS, WI-38 cells, Cy5-labeled peptide as competitor"}, "mu (MOP) (h) (human)": {"target": "mu (MOP) (h) (human) (UniProt P35372)", "sequence (P35372 whole entry)": "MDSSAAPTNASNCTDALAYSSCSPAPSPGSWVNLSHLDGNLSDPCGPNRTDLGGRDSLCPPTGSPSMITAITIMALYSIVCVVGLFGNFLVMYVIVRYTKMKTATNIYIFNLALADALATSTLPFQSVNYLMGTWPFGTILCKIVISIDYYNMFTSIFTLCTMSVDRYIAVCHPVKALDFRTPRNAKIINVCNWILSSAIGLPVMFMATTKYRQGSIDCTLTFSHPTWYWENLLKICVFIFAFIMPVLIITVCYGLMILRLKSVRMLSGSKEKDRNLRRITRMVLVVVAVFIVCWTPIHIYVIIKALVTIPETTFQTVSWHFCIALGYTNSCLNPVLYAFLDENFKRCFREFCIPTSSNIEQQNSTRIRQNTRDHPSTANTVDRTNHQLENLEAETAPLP", "experiment": "reference compound of the radioligand binding assay (Ki Ref)"}, "[2]": {"target": "fibroblast activation protein (FAP) on FAP-expressing human WI-38 fibroblasts (human) (UniProt Q12884)", "experiment": "competitive FACS, WI-38 cells, vs Cy5 tracer m3; D = pIC50 <=6.0"}, "delta (DOP) (h) (human)": {"target": "delta (DOP) (h) (human) (UniProt P41143)", "sequence (P41143 whole entry, stated change not applied)": "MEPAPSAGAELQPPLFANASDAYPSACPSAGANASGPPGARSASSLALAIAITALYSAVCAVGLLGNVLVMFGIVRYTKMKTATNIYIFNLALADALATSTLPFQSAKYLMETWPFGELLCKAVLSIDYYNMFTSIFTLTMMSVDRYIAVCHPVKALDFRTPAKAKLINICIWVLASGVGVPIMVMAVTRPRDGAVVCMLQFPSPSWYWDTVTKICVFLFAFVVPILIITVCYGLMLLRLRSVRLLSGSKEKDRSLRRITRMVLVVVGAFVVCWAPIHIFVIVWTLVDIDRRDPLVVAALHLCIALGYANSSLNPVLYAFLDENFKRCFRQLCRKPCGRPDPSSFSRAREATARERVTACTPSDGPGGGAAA", "experiment": "reference compound of the radioligand binding assay (Ki Ref)"}, "[3]": {"target": "human fibroblast activating protein (FAP) on WI-38 fibroblasts (human) (UniProt Q12884)", "experiment": "competitive FACS on WI-38 cells vs 3 nM Cy5-labeled peptide; pIC50 category D = ≤6.0"}}, "data": [{"substance": "Ac-Aad-[Cys(3MeBn)-Pro-Pro-Thr-Gln-Phe-Cys]-NH2 (peptide)", "values": [{"measurement": "pIC50 Category (FACS)", "setting": "[1]", "value": "< 6", "unit": "pIC50"}]}, {"substance": "DAMGO (peptide)", "values": [{"measurement": "Ki", "setting": "mu (MOP) (h) (human)", "value": 0.37, "unit": "nM"}]}, {"substance": "DOTA-Ttds-Hci-[Cys(3MeBn)-Pro-Pro-Thr-Gln-Phe-Cys]-Bal-OH (peptide)", "values": [{"measurement": "pIC50 Category (FACS)", "setting": "[2]", "value": "< 6", "unit": "pIC50"}]}, {"substance": "DPDPE (peptide)", "values": [{"measurement": "Ki", "setting": "delta (DOP) (h) (human)", "value": 1.2, "unit": "nM"}]}, {"substance": "H-Ahx-[Cys(3MeBn)-Pro-Pro-Thr-Gln-Phe-Cys]-NH2 (peptide)", "values": [{"measurement": "pIC50 Category (FACS)", "setting": "[1]", "value": "< 6", "unit": "pIC50"}]}, {"substance": "H-Ava-[Cys(3MeBn)-Pro-Pro-Thr-Gln-Phe-Cys]-NH2 (peptide)", "values": [{"measurement": "pIC50 Category (FACS)", "setting": "[1]", "value": "< 6", "unit": "pIC50"}]}, {"substance": "H-Gab-[Cys(3MeBn)-Pro-Pro-Thr-Gln-Phe-Cys]-NH2 (peptide)", "values": [{"measurement": "pIC50 Category (FACS)", "setting": "[1]", "value": "< 6", "unit": "pIC50"}]}, {"substance": "N4Ac-PPAc-Bal--Nle-[C(3MeBn)-PPTEFC]-OH (peptide)", "values": [{"measurement": "pIC50", "setting": "[3]", "value": "< 6", "unit": "pic50"}]}, {"substance": "N4Ac-Ttds-Glu(AGLU′)-Nle-[Cys-(3MeBn)-Pro-Pro-Thr-Gln-Phe-Cys]-OH (peptide)", "values": [{"measurement": "pIC50 Category (FACS)", "setting": "[1]", "value": "< 6", "unit": "pIC50"}]}, {"substance": "N4Ac-gGlu-Nle-[Cys-(3MeBn)-Pro-Pro-Thr-Gln-Phe-Cys]-OH (peptide)", "values": [{"measurement": "pIC50 Category (FACS)", "setting": "[1]", "value": "< 6", "unit": "pIC50"}]}]}
